Reference: paper PMC11969553, “Expression of Human β3GalT5–1 in Insect Cells as Active Glycoforms for the Efficient Synthesis of Cancer-Associated Globo-Series Glycans” (Journal of the American Chemical Society, 2025)

Columns and labels:
[1] = substrate: C=CCO[C@@H]1O[C@H](CO)[C@@H](O[C@@H]2O[C@H](CO)[C@H](O[C@H]3O[C@H](CO)[C@H](O)[C@H](O[C@@H]4O[C@H](CO)[C@H](O)[C@H](O)[C@H]4NC(C)=O)[C@H]3O)[C@H](O)[C@H]2O)[C@H](O)[C@H]1O; test: UDP release, Michaelis-Menten fit; type: biochemical, Homo sapiens; conditions: 0.1 mM UDP-Gal, HEPES, 0.1 mM MnCl2, 0-4 mM substrate; pH 7.0
Source text: UDP release, Michaelis-Menten fit on soluble β3GalT5-1 (insect)

[2] = substrate: C=CCO[C@@H]1O[C@H](CO)[C@@H](O[C@@H]2O[C@H](CO)[C@H](O[C@H]3O[C@H](CO)[C@H](O)[C@H](O[C@@H]4O[C@H](CO)[C@H](O)[C@H](O)[C@H]4NC(C)=O)[C@H]3O)[C@H](O)[C@H]2O)[C@H](O)[C@H]1O; test: UDP release, Michaelis-Menten fit; type: biochemical, Homo sapiens; conditions: 10 mM UDP-sugar (UDP-Gal) fixed, 20 mM HEPES pH 7.4, 0.1 mM MnCl2
Source text: (§1) UDP release, Michaelis-Menten fit on soluble β3GalT5-1 (HEK293)

[3] = substrate: O=c1ccn([C@@H]2O[C@H](COP(=O)(O)OP(=O)(O)O[C@H]3O[C@H](CO)[C@H](O)[C@H](O)[C@H]3O)[C@@H](O)[C@H]2O)c(=O)[nH]1; test: UDP release, Michaelis-Menten fit; type: biochemical, Homo sapiens; conditions: 2 mM Gb4 glycan fixed, 20 mM HEPES pH 7.4, 0.1 mM MnCl2
Source text: as §1

[4] = galactosyltransferase activity assay (Figure S6E); conditions: control: untreated Sf9-expressed enzyme (paucimannose glycoforms)
[5] = Michaelis–Menten kinetics by UDP release; conditions: glycan changed form; control: Sf9 insect cell-expressed enzyme (paucimannose)

B1: soluble β3GalT5-1 (insect) (Homo sapiens) (protein)
chain: NPFKEQSFVYKKDGNFLKLPDTDCRQTPPFLVLLVTSSHKQLAERMAIRQTWGKERMVKGKQLKTFFLLGTTSSAAETKEVDQESQRHGDIIQKDFLDVYYNLTLKTMMGIEWVHRFCPQAAFVMKTDSDMFINVDYLTELLLKKNRTTRFFTGFLKLNEFPIRQPFSKWFVSKSEYPWDRYPPFCSGTGYVFSGDVASQVYNVSKSVPYIKLEDVFVGLCLERLNIRLEELHSQPTFFPGGLRFSVCLFRRIVACHFIKPRTLLDYWQALENSRGEDCPPV
notes: crystal: Phe31-Pro308 stated, Asp41-Pro308 visible
For B1, the Km [1] was 660 ± 400 µM, the kcat [1] was 0.0583 ± 0.00667 s⁻¹ and the kcat/Km [1] was 88.3 ± 16.7 M⁻¹ s⁻¹.

B2: soluble β3GalT5-1 (HEK293) (Homo sapiens; Q69M/S66A) (protein)
chain: NPFKEQSFVYKKDGNFLKLPDTDCRQTPPFLVLLVTSAHKMLAERMAIRQTWGKERMVKGKQLKTFFLLGTTSSAAETKEVDQESQRHGDIIQKDFLDVYYNLTLKTMMGIEWVHRFCPQAAFVMKTDSDMFINVDYLTELLLKKNRTTRFFTGFLKLNEFPIRQPFSKWFVSKSEYPWDRYPPFCSGTGYVFSGDVASQVYNVSKSVPYIKLEDVFVGLCLERLNIRLEELHSQPTFFPGGLRFSVCLFRRIVACHFIKPRTLLDYWQALENSRGEDCPPV
notes: soluble luminal domain N29-V310, no TM; expressed in HEK293 cells, complex-type N-glycans
In the case of B2, the Km [2] is reported as 1650 ± 400 µM, the kcat [2] is reported as 0.0248 ± 0.00167 s⁻¹ and the kcat/Km [2] is reported as 15 ± 6.67 M⁻¹ s⁻¹. For the same protein, the Km [3] was 270 ± 60 µM, the kcat [3] was 0.0773 ± 0.00667 s⁻¹ and the kcat/Km [3] was 284 ± 113 M⁻¹ s⁻¹.

B3: soluble β3GalT5-1 (HEK293) (Homo sapiens) (protein)
chain: NPFKEQSFVYKKDGNFLKLPDTDCRQTPPFLVLLVTSSHKQLAERMAIRQTWGKERMVKGKQLKTFFLLGTTSSAAETKEVDQESQRHGDIIQKDFLDVYYNLTLKTMMGIEWVHRFCPQAAFVMKTDSDMFINVDYLTELLLKKNRTTRFFTGFLKLNEFPIRQPFSKWFVSKSEYPWDRYPPFCSGTGYVFSGDVASQVYNVSKSVPYIKLEDVFVGLCLERLNIRLEELHSQPTFFPGGLRFSVCLFRRIVACHFIKPRTLLDYWQALENSRGEDCPPV
notes: as for B2
In the case of B3, the Km [2] is reported as 1400 ± 200 µM, the kcat [2] is reported as 0.0448 ± 0.00333 s⁻¹ and the kcat/Km [2] is reported as 32 ± 16.7 M⁻¹ s⁻¹. For the same protein, the Km [3] was 140 ± 40 µM, the kcat [3] was 0.125 ± 0.0117 s⁻¹ and the kcat/Km [3] was 870 ± 293 M⁻¹ s⁻¹.

B4: soluble β3GalT5-1 (HEK293) (Homo sapiens; Q69A/S66A) (protein)
chain: NPFKEQSFVYKKDGNFLKLPDTDCRQTPPFLVLLVTSAHKALAERMAIRQTWGKERMVKGKQLKTFFLLGTTSSAAETKEVDQESQRHGDIIQKDFLDVYYNLTLKTMMGIEWVHRFCPQAAFVMKTDSDMFINVDYLTELLLKKNRTTRFFTGFLKLNEFPIRQPFSKWFVSKSEYPWDRYPPFCSGTGYVFSGDVASQVYNVSKSVPYIKLEDVFVGLCLERLNIRLEELHSQPTFFPGGLRFSVCLFRRIVACHFIKPRTLLDYWQALENSRGEDCPPV
notes: as for B2
B4 showed a Km [2] of 1110 ± 300 µM, a kcat [2] of 0.00783 ± 0.000833 s⁻¹ and a kcat/Km [2] of 7 ± 3.33 M⁻¹ s⁻¹. For the same protein, the Km [3] was 320 ± 90 µM, the kcat [3] was 0.0273 ± 0.00333 s⁻¹ and the kcat/Km [3] was 156 ± 45 M⁻¹ s⁻¹.

B5: soluble β3GalT5-1 (HEK293) (Homo sapiens; Q69A) (protein)
chain: NPFKEQSFVYKKDGNFLKLPDTDCRQTPPFLVLLVTSSHKALAERMAIRQTWGKERMVKGKQLKTFFLLGTTSSAAETKEVDQESQRHGDIIQKDFLDVYYNLTLKTMMGIEWVHRFCPQAAFVMKTDSDMFINVDYLTELLLKKNRTTRFFTGFLKLNEFPIRQPFSKWFVSKSEYPWDRYPPFCSGTGYVFSGDVASQVYNVSKSVPYIKLEDVFVGLCLERLNIRLEELHSQPTFFPGGLRFSVCLFRRIVACHFIKPRTLLDYWQALENSRGEDCPPV
notes: as for B2
In the case of B5, the Km [2] is reported as 1210 ± 300 µM, the kcat [2] is reported as 0.012 ± 0.00117 s⁻¹ and the kcat/Km [2] is reported as 10 ± 3.33 M⁻¹ s⁻¹. It also gave a Km [3] of 300 ± 50 µM, a kcat [3] of 0.0497 ± 0.00333 s⁻¹ and a kcat/Km [3] of 165 ± 63.3 M⁻¹ s⁻¹.

B6: soluble β3GalT5-1 (HEK293) (Homo sapiens; S66A) (protein)
chain: NPFKEQSFVYKKDGNFLKLPDTDCRQTPPFLVLLVTSAHKQLAERMAIRQTWGKERMVKGKQLKTFFLLGTTSSAAETKEVDQESQRHGDIIQKDFLDVYYNLTLKTMMGIEWVHRFCPQAAFVMKTDSDMFINVDYLTELLLKKNRTTRFFTGFLKLNEFPIRQPFSKWFVSKSEYPWDRYPPFCSGTGYVFSGDVASQVYNVSKSVPYIKLEDVFVGLCLERLNIRLEELHSQPTFFPGGLRFSVCLFRRIVACHFIKPRTLLDYWQALENSRGEDCPPV
notes: as for B2
For B6, the Km [2] was 1200 ± 200 µM, the kcat [2] was 0.0777 ± 0.005 s⁻¹ and the kcat/Km [2] was 64.8 ± 31.7 M⁻¹ s⁻¹. The Km [3] was 350 ± 100 µM, the kcat [3] was 0.276 ± 0.0417 s⁻¹ and the kcat/Km [3] was 781 ± 408 M⁻¹ s⁻¹.

B7: soluble β3GalT5-1 (HEK293) (Homo sapiens; Q69M) (protein)
chain: NPFKEQSFVYKKDGNFLKLPDTDCRQTPPFLVLLVTSSHKMLAERMAIRQTWGKERMVKGKQLKTFFLLGTTSSAAETKEVDQESQRHGDIIQKDFLDVYYNLTLKTMMGIEWVHRFCPQAAFVMKTDSDMFINVDYLTELLLKKNRTTRFFTGFLKLNEFPIRQPFSKWFVSKSEYPWDRYPPFCSGTGYVFSGDVASQVYNVSKSVPYIKLEDVFVGLCLERLNIRLEELHSQPTFFPGGLRFSVCLFRRIVACHFIKPRTLLDYWQALENSRGEDCPPV
notes: as for B2
B7 showed a Km [2] of 420 ± 300 µM, a kcat [2] of 0.0107 ± 0.00167 s⁻¹ and a kcat/Km [2] of 25.3 ± 8.33 M⁻¹ s⁻¹. It also gave a Km [3] of 210 ± 50 µM, a kcat [3] of 0.0585 ± 0.005 s⁻¹ and a kcat/Km [3] of 282 ± 103 M⁻¹ s⁻¹.

B8: β3GalT5–1 (soluble domain): PNGase F (protein)
parent chain: MAFPKMRLMYICLLVLGALCLYFSMYSLNPFKEQSFVYKKDGNFLKLPDTDCRQTPPFLVLLVTSSHKQLAERMAIRQTWGKERMVKGKQLKTFFLLGTTSSAAETKEVDQESQRHGDIIQKDFLDVYYNLTLKTMMGIEWVHRFCPQAAFVMKTDSDMFINVDYLTELLLKKNRTTRFFTGFLKLNEFPIRQPFSKWFVSKSEYPWDRYPPFCSGTGYVFSGDVASQVYNVSKSVPYIKLEDVFVGLCLERLNIRLEELHSQPTFFPGGLRFSVCLFRRIVACHFIKPRTLLDYWQALENSRGEDCPPV
With B8 the “enzymatic_activity, fold_change” value ([4]; glycan lost) was “decreases”.

B9: β3GalT5–1 (soluble domain): expression in HEK293 (complex-type glycoforms) (protein)
parent chain: MAFPKMRLMYICLLVLGALCLYFSMYSLNPFKEQSFVYKKDGNFLKLPDTDCRQTPPFLVLLVTSSHKQLAERMAIRQTWGKERMVKGKQLKTFFLLGTTSSAAETKEVDQESQRHGDIIQKDFLDVYYNLTLKTMMGIEWVHRFCPQAAFVMKTDSDMFINVDYLTELLLKKNRTTRFFTGFLKLNEFPIRQPFSKWFVSKSEYPWDRYPPFCSGTGYVFSGDVASQVYNVSKSVPYIKLEDVFVGLCLERLNIRLEELHSQPTFFPGGLRFSVCLFRRIVACHFIKPRTLLDYWQALENSRGEDCPPV
In the case of B9, the “enzymatic_activity, kcat_Km” value [5] is reported as “no change, 5.2 ± 3.0 vs 5.3 ± 1.0”.

B10: β3GalT5–1 (soluble domain): kifunensine (high mannose glycoforms) (protein)
parent chain: MAFPKMRLMYICLLVLGALCLYFSMYSLNPFKEQSFVYKKDGNFLKLPDTDCRQTPPFLVLLVTSSHKQLAERMAIRQTWGKERMVKGKQLKTFFLLGTTSSAAETKEVDQESQRHGDIIQKDFLDVYYNLTLKTMMGIEWVHRFCPQAAFVMKTDSDMFINVDYLTELLLKKNRTTRFFTGFLKLNEFPIRQPFSKWFVSKSEYPWDRYPPFCSGTGYVFSGDVASQVYNVSKSVPYIKLEDVFVGLCLERLNIRLEELHSQPTFFPGGLRFSVCLFRRIVACHFIKPRTLLDYWQALENSRGEDCPPV
In the case of B10, the “enzymatic_activity, fold_change” value ([4]; glycan changed form) is reported as “increases”.

B11: β3GalT5–1 (soluble domain): kifunensine then Endo-H (mono-GlcNAc) (protein)
parent chain: MAFPKMRLMYICLLVLGALCLYFSMYSLNPFKEQSFVYKKDGNFLKLPDTDCRQTPPFLVLLVTSSHKQLAERMAIRQTWGKERMVKGKQLKTFFLLGTTSSAAETKEVDQESQRHGDIIQKDFLDVYYNLTLKTMMGIEWVHRFCPQAAFVMKTDSDMFINVDYLTELLLKKNRTTRFFTGFLKLNEFPIRQPFSKWFVSKSEYPWDRYPPFCSGTGYVFSGDVASQVYNVSKSVPYIKLEDVFVGLCLERLNIRLEELHSQPTFFPGGLRFSVCLFRRIVACHFIKPRTLLDYWQALENSRGEDCPPV
With B11 the “enzymatic_activity, fold_change” value ([4]; glycan lost) was “increases”.
